Target: Q60492
Experiment: TOXCAT (ToxR-driven CAT reporter of transmembrane self-association); TM domain between MBP and ToxR in the membrane of E. coli MM39; CAT activity of lysates as percent of glycophorin A
Conditions: other: TOXCAT (ToxR-driven CAT reporter of transmembrane self-association)

Protein: WVFVNAGGWMLAMCLLHASL [TM2 domain of S1R with G91L in the TOXCAT construct]
- TOXCAT response relative to nonmutated TM2: attenuated to only 60% of that observed from the nonmutated TM2
